These results are taken from paper PMC8188256 (Data in Brief, 2021).

For one assay, the target named is DnaK (Escherichia coli, UniProt P0A6Y8). Kind of assay: biochemical.
The next assay concerns the target DnaKLS (E. coli) (UniProt P0A6Y8). The assay is described as follows: SPR. In general terms: Surface plasmon resonance follows binding to a sensor surface in real time, without labels.
Assay [1] concerns the target Plasmodium falciparum Hsp110 (PfHsp70-z) (Plasmodium falciparum). Kind of assay: SPR.
The target of assay [2] is PfHsp70-zLS (Plasmodium falciparum). The assay is described as follows: SPR.
In assay [3] the target is PfHsp70–1LS (Plasmodium falciparum). The assay is described as follows: SPR.
Assay [4] deals with PfHsp70–1 (Plasmodium falciparum). Kind of assay: SPR.

Where “and” joins values, the source holds several entries; their conditions need not be identical. Identical values can stand only once.

DnaJ, sequence (P08622 whole entry): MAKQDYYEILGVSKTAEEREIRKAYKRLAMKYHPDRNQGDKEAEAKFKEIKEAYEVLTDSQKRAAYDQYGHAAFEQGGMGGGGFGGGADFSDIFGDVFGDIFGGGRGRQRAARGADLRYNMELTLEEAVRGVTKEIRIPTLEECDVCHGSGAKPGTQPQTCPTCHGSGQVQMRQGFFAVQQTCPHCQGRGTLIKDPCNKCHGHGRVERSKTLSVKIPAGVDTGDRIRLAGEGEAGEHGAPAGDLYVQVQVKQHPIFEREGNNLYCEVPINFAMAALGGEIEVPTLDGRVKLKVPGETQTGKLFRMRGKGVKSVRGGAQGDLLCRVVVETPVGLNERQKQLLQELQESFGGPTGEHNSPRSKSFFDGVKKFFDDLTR
DnaK, sequence (P0A6Y8 2-638): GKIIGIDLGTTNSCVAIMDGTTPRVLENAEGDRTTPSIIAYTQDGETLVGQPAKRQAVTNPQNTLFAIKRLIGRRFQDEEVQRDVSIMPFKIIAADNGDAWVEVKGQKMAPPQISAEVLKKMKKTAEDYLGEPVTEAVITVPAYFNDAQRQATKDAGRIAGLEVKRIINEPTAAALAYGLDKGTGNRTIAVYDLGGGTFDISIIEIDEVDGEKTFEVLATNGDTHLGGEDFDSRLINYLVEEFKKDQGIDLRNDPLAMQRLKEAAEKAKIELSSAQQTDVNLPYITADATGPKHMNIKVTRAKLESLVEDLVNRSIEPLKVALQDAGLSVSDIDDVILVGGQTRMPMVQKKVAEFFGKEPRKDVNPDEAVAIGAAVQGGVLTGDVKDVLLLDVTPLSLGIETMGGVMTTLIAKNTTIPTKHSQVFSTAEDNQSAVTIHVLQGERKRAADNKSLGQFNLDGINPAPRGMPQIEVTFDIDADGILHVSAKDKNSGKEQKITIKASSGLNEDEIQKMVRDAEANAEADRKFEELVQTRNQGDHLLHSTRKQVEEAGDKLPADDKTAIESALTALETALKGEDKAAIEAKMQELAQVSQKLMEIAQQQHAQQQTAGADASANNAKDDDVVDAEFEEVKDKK

One may read the Kd as the constant that tells how readily two partners part at equilibrium. High values mean a looser complex, low ones a tighter complex. The molecule `Nc1ncnc2c1ncn2[C@@H]1O[C@H](COP(=O)(O)OP(=O)(O)OP(=O)(O)O)[C@@H](O)[C@H]1O` [ATP] had a Kd at DnaK of 398 nM.

Broadly, the koff is a measure of how fast the partners let go of each other. Consider “DnaJ (from UniProt P08622 1-376) (natural protein)”, for which the koff with DnaKLS (E. coli) is 0.0676 s⁻¹ and 0.0732 s⁻¹ and 0.0522 s⁻¹.

One may read the kon as the second-order rate constant of association. PfHsp40 (natural protein): the koff was 0.0713 s⁻¹ and 0.0396 s⁻¹ and 0.0369 s⁻¹ in assay [1]; 0.0815 s⁻¹ and 0.0866 s⁻¹ and 0.0361 s⁻¹ in assay [4]. In addition, the kon in assay [2] was 9020 M⁻¹ s⁻¹ and 6170 M⁻¹ s⁻¹ and 7250 M⁻¹ s⁻¹; in assay [3], 6040 M⁻¹ s⁻¹ and 2200 M⁻¹ s⁻¹ and 6140 M⁻¹ s⁻¹.
